Measured values as given in US8822187B1, “Polypeptides, nucleic acid molecules, and methods for synthesis of triterpenes” (University of Kentucky Research Foundation, priority 2011, dated 2014).
Entries after “also recorded” stand apart in the source; their conditions may differ.

Tests used:
[1] = Purified bacterial-expressed enzymes incubated with FPP, products by GC-MS or TLC/scintillation counting; type: biochemical; conditions: for squalene or botryococcene biosynthesis by purified enzyme in vitro: FPP as substrate, enzyme assayed alone
Excerpt: (§1) FIG. 6 depicts the functional characterization of the squalene synthase-like genes of Botryococcus braunii race B. The squalene synthase-like genes, SSL-1, SSL-2 and SSL-3, were expressed in yeast separately (SSL-1 (B), SSL-2(C) or SSL-3(D)) or in combinations (SSL-1+SSL-2(E), SSL-1+SSL-3(F)) and the hexane extractable metabolites profiled by GC-MS. The chemical profile of yeast not engineered with any gene constructs serves as the background control (A). […] Data (J) represents mean±S.E.M. obtained from three independent experiments (n=3). The chromatograms (A-I) are also annotated for the elution behavior of botryococcene (1), squalene (2), presqualene alcohol (3) and bisfarnesyl ether (4).
The recombinant vectors were transformed into E. coli strain BL21(DE3) according to the manufacturer's recommendations (Novagen). The selected lines were grown with kanamycin selection at 37° C. with vigorous shaking until the cultures reached an optical density of ˜0.8 (OD600 nm), then expression of the corresponding SSL gene induced by addition of 0.5 mM isopropylthio-β-D-galactoside (IPTG) and the cultures incubate for an additional 3 to 20 h with shaking at room temperature. One hundred ml of the culture was subject to centrifugation at 4,000 g for 10 min, the pelleted cells resuspended in 10 ml of lysis buffer containing 50 mM NaH2PO4, pH 7.8, 300 mM NaCl, 10 mM imidazole, 1 mM MgCl2, 1 mM PMSF, 1% glycerol (v/v), then sonicated 4× for 10 sec with a microprobe sonicator at 60% maximum power. The samples were cooled on ice for 2 min between sonication treatments. The sonicate was centrifuged at 16,000 g for 10 min at 4° C. and the supernatant used for purification of the hexa-histidine tagged enzymes.
Purification of the bacterial expressed enzymes was afforded by the amino-terminal hexa-histidine tag using His-Select Cobalt affinity gel (Sigma) columns according the manufacturer's recommendations. Recovery of proteins with the expected molecular sizes was determined by SDS-PAGE. The purified protein fractions were concentrated using Amicon Ultra (0.5 ml, 10K) centrifugation filter units and stored in 300 mM NaCl, 20 mM Tris-HCl pH 7.5, 5 mM dithiothreitol, 2 mM MgCL2, 50% glycerol (v/v) at −20° C. for 2-3 weeks without noticeable loss of activity.
Typical enzyme assays were initiated by mixing aliquots of purified enzyme with 50 mM Mops, pH 7.3, 20 mM MgCl2, 2.5 mM 2-mercaptoethanol, 10 μM [1-^3H]-FPP (˜2×10^5 dpm total), and 2 mM NADPH in total reaction volume of 50 μl. Reactions were incubated at 37° C. for 1 h and then extracted with 100 μl n-hexane or 100 ul MTBE. Forty μl of the n-hexane or MTBE extract was then spotted onto silica TLC plates with authentic standards of botryococcene and squalene and developed with n-hexane, or standards of bisfarnesyl ether and developed with n-hexane:MTBE, 25:1. The standards were visualized with iodine vapors and TLC zones corresponding to the standards were scrapped and analyzed by scintillation spectrometry. If Botryococcus lysate was added to enzyme assays, typically 5 μl of lysate (corresponding to 10 μg total protein) prepared from B. braunii cells according to Okada et al. (1) was added. […] Extracts were resuspended in 50 μl hexane and an aliquot analyzed by GC-MS with a Varian CP-3800 GC coupled to a Varian Saturn 2200 MS/MS (Varian Medical Systems) using a Supelco SLB-5 ms fused silica capillary column (30 m×0.25 mm×0.25 μM film thickness, Supelco). […]

[2] = test system: TN7 yeast line; assay: Expression of SSL genes in TN7 yeast line, hexane extractable metabolites by GC-MS; type: cell-based
Excerpt: as §1
FIG. 10 includes a comparison of botryococcene production in yeast engineered with different configurations of SSL-1 and SSL-3. Yeast line TN7 was engineered with the SSL-1 and SSL-3 genes on separate plasmids (squares), with gene fusions (SSL-1 fused to SSL-3 via a triplet repeat of GGSG (triangles), or vice versa (diamonds)), or with 63 or 71 amino acids of the carboxy terminus of the Botryococcus squalene synthase, sequences containing a membrane spanning domain, appended to the carboxy termini of the SSL-1 and SSL-3 enzymes, respectively (circles). The data represents mean±S.E.M.
The various recombinant yeast expression vectors were introduced into the TN7 yeast line via lithium acetate transformation, followed by selection for uracil and leucine auoxtrophic growth (Takahashi, et al. (2007)). […] Individual colonies of TN7 and the various TN7-transformants were subsequently grown in 25 ml of YPDE (nutrient rich) or Yeast Synthetic Drop-out medium (selection) for the indicated time at 25° C. before analyzing the cultures for production of novel triterpene components. In brief, 1 ml aliquots of the culture were combined with 1 ml of acetone, vigorously mixed, and incubated at room temperature for 10 min. One ml of hexane was added and mixed vigorously for 60 sec. […] The dried extract was resuspended in 50-500 μl of n-hexane and a 1 μl aliquot analyzed by GC-MS as described above. […]

[3] = SSL-2 incubated by itself, NADPH-dependent

Molecule	squalene or botryococcene biosynthesis by purified enzyme in vitro [1]	products accumulating in yeast ([2]; gene expressed separately in yeast)	bisfarnesyl ether share of products [1, 3] [%]	squalene share of products [1, 3] [%]	squalene accumulating, share of the total ([2]; expressed in yeast)
Botryococcus braunii race B squalene synthase-like 1 (SSL-1), wild type, hexa-histidine tagged, SEQ ID NO: 2 (Botryococcus braunii) (protein) MTMHQDHGVMKDLVKHPNEFPYLLQLAATTYGSPAAPIPKEPDRAFCYNTLHTVSKGFPRFVMRLPQELQDPICIFYLLLRALDTVEDDMNLKSETKISLLRVFHEHCSDRNWSMKSDYGIYADLMERFPLVVSVLEKLPPATQQTFRENVKYMGNGMADFIDKQILTVDEYDLYCHYVAGSCGIAVTKVIVQFNLATPEADSYDFSNSLGLLLQKANIITDYNEDINEEPRPRMFWPQEIWGKYAEKLADFNEPENIDTAVKCLNHMVTDAMRHIEPSLKGMVYFTDKTVFRALALLLVTAFGHLSTLYNNPNVFKEKVRQRKGRIARLVMSSRNVPGLFRTCLKLANNFESRCKQETANDPTVAMTIKRLQSIQATCRDGLAKYDTPSGLKSFCAAPTPTK	did not exhibit either squalene nor botryococcene biosynthesis	accumulated to significant levels			
SSL-2: Botryococcus braunii race B squalene synthase-like 2 enzyme; bacterial form is truncated SSL-2-tr2 (protein) MVKLVEVLQHPDEIVPILQMLHKTYRAKRSYKDPGLAFCYGMLQRVSRSFSVVIQQLPDELRHPICVFYLILRALDTVEDDMNLPNEVKIPLLRTFHEHLFDRSWKLKCGYGPYVDLMENYPLVTDVFLTLSPGAQEVIRDSTRRMGNGMADFIGKDEVHSVAEYDLYCHYVAGLVGSAVAKIFVDSGLEKENLVAEVDLANNMGQFLQKTNVIRDYLEDINEEPAPRMFWPREIWGKYAQELADFKDPANEKAAVQCLNHMVTDALRHCEIGLNVIPLLQNIGILRSCLIPEVMGLRTLTLCYNNPQVFRGVVKMRRGETAKLFMSIYDKRSFYQTYLRLANELEAKCKGEASGDPMVATTLKHVHGIQKSCKAALSSKELLAKSGSALTDDPAIRLLLLVGVVAYFAYAFNLGDVRGEHGVRALGSILDLSQKGLAVASVALLLLVLLARSRLPLLTSASSKQ	neither bacterial-expressed, purified enzymes exhibited any botryococcene biosynthesis; also recorded: low capacity for squalene biosynthesis		~90	~10	~10 % of the total
